Data reported in patent US20070203071A1.
pIC50: −log10 of the molar value. Each block holds one substance with its values, some of them ahead of it.

Key:
- = assay: competition binding, 125I-PTH(1-15) tracer, HKRK-B28 cells
hP1R (human) = hP1R (human) (UniProt Q03431); assay: competition binding, 125I-PTH(1-15) tracer, HKRK-B7 cells
[1] = molecular target: wild-type human P1R (human) (UniProt Q03431); assay: as above
wild-type human P1R (human), sequence (Q03431 27-593): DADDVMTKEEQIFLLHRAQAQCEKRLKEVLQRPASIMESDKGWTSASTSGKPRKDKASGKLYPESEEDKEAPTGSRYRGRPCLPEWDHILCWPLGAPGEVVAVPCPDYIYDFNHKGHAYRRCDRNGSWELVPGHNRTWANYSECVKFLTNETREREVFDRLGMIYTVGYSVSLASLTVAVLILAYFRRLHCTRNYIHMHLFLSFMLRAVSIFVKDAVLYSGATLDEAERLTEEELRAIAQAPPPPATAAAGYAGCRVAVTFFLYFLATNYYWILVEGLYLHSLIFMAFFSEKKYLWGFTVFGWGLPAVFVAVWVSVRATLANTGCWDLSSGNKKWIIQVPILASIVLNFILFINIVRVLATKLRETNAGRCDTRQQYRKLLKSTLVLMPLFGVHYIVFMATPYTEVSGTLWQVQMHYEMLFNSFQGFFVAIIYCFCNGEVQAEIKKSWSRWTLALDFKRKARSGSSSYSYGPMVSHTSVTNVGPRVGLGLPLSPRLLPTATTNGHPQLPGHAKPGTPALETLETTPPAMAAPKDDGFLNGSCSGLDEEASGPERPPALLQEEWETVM

hP1R (human), sequence (Q03431 27-593): as above
[Ile^5, Trp^23, Tyr^36]PTHrP(5-36)NH2, sequence (P12272 41-72): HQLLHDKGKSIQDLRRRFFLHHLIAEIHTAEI

Substance: PTH(1-34)
- pIC50 (hP1R (human)): 8.70

Substance: rPTH(1-34)
- pIC50 (-): 8.32

More lines, now with the values ahead:

- pIC50 (-): 7.74
Substance: [Aib1,3,M]PTH(1-21)

- pIC50 (-): 6.12
Substance: [Aib3,M]PTH(3-21)

- pIC50 [1]: 7.30
Substance: [Ile^5, Trp^23, Tyr^36]PTHrP(5-36)NH2 (from UniProt P12272 41-72)
